# Molecular target: the molecule itself
# Test: affinity purification with mass spectrometry; anti-apo A-II monoclonal antibody covalently bound on a PS-20 protein chip; plasma diluted 1:2 in TBS pH 7.4 or purified HDL, 2 h at room temperature; washes 4 x TBS, TBS-Tween 0.005 %, 5 mM Hepes; SELDI-TOF MS of captured native HDL
# apolipoprotein A-II, sequence (P02652 24-100): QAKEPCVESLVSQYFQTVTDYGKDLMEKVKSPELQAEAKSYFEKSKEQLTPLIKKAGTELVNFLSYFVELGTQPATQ
protein,measurement,value
"apolipoprotein A-II (natural protein, apolipoprotein A-II of human plasma HDL; dimer at about 17.4 kDa (17099, 17221 and 17352 m/z); Three dimer species were seen: the full dimer and dimers lacking one or two terminal (probably C-terminal) glutamine residues; The dimer is probably the disulfide-linked one (my surmise); Present on native HDL particles; also called apo A-II; source: endogenous, human plasma (HDL particles captured …)) not shown",stoichiometry N,2
